Measurements published in US9969998B2, “Compositions of adenosine deaminase-2 (ADA2), variants thereof and methods of using same” (Halozyme, Inc., priority 2014, dated 2018).
Positions count from the first letter of the chain named. Names and notes keep the numbering of the source.

B1: R23E: ADA2 variant SEQ ID NO:30 (protein)
chain: IDETRAHLLLKEKMMRLGGELVLNTKEELANERLMTLKIAEMKEAMRTLIFPPSMHFFQAKHLIERSQVFNILRMMPKGAALHLHDIGIVTMDWLVRNVTYRPHCHICFTPRGIMQFRFAHPTPRPSEKCSKWILLEDYRKRVQNVTEFDDSLLRNFTLVTQHPEVIYTNQNVVWSKFETIFFTISGLIHYAPVFRDYVFRSMQEFYEDNVLYMEIRARLLPVYELSGEHHDEEWSVKTYQEVAQKFVETHPEFIGIKIIYSDHRSKDVAVIAESIRMAMGLRIKFPTVVAGFDLVGHEDTGHSLHDYKEALMIPAKDGVKLPYFFHAGETDWQGTSIDRNILDALMLNTTRIGHGFALSKHPAVRTYSWKKDIPIEVCPISNQVLKLVSDLRNHPVATLMATGHPMVISSDDPAMFGAKGLSYDFYEVFMGIGGMKADLRTLKQLAMNSIKYSTLLESEKNTFMEIWKKRWDKFIADVATK
modifications: human ADA2 R20E, mature numbering
B2: K374D: ADA2 variant SEQ ID NO:20 (protein)
chain: B1 chain with E20R, K371D
modifications: human ADA2 K371D, mature numbering
B3: WT ADA2: wild type recombinant human adenosine deaminase 2 with FLAG tag, mature ADA2 SEQ ID NO:5 (protein, listed as Homo sapiens)
chain: B1 chain with E20R
modifications: FLAG tag; ADA2 mature protein
B4: PEG-K374D: rHuADA2-K374D (SEQ ID NO:20) PEGylated on surface exposed lysines with linear PEG-20K (conjugate)
chain: B1 chain with E20R, K371D
modifications: linear PEG-20K on surface lysines; human ADA2 K371D, mature numbering
B5: K374E: ADA2 variant SEQ ID NO:21 (protein)
chain: B1 chain with E20R, K371E
modifications: human ADA2 K371E, mature numbering
B6: S265N: ADA2 variant SEQ ID NO:54 (protein)
chain: B1 chain with E20R, S262N
modifications: human ADA2 S262N, mature numbering

Key:
[1] = Thermal stability by differential scanning fluorimetry (DSF); format: physicochemical; conditions: for Tm, melting temperature by DSF: 0.1-1 mg/mL protein
Method in brief: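 Tm was taken as the midpoint of the unfolding transition. WT and variant rHuADA2, PEGylated or not, at 0.1-1 mg/mL were run in triplicate with ROX thermal shift dye, ramped 25 to 99° C at 0.05° C/s. Fluorescence read at 580 nm excitation and 623 nm emission.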

[2] = Adenosine deaminase (ADA) enzymatic activity assay kit; format: biochemical; conditions: for % of WT adenosine deaminase activity: Table 23; for % activity vs. WT: relative to rHuADA2 WT (Table 21); for Adenosine deaminase activity mU/ml / Adenosine deaminase activity ΔA/min / % of WT activity: purified protein at 5 μg/mL; for % of WT activity: compared to WT-ADA2
[3] = Kinetic assessment of adenosine deaminase activity (ammonia assay, Michaelis-Menten); format: biochemical; conditions: for kcat: kcat=Vmax/0.0085/60; for kinetics properties compared to WT: pH 7.6 and pH 6.5
Method in brief: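 Coupled ammonia assay: rHuADA2 WT or variants (1 μg/mL, 17 nM in 2× mix) with adenosine 20 μM–20 mM, α-ketoglutarate, NADPH and GDH, at pH 7.6 or pH 6.5 (PIPES), room temperature. Michaelis-Menten fit gave Km, Vmax, kcat, kcat/Km.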

[4] = PEGylated and non-PEGylated forms (Table 23)
[5] = protein diluted to 5 μg/mL, serially diluted 2 fold (Table 21)

| Molecule | Tm, melting temperature by DSF [1] | enzymatic activity relative to WT rHuADA2 [2] | adenosine deaminase activity mU/mL [2, 4] | % of WT adenosine deaminase activity [2] | adenosine deaminase activity mU/mL [2, 5] | ΔA/min, adenosine deaminase activity [2, 5] | % activity vs. WT [2] | Km ([3]; pH 6.5, [E] = 8.5 nM) | Vmax ([3]; pH 6.5, [E] = 8.5 nM) | kcat ([3]; pH 6.5, [E] = 8.5 nM) | Km ([3]; pH 7.6, [E] = 8.5 nM) | Vmax ([3]; pH 7.6, [E] = 8.5 nM) | kcat ([3]; pH 7.6, [E] = 8.5 nM) | kinetics properties compared to WT [3] | Adenosine deaminase activity mU/ml [2] | Adenosine deaminase activity ΔA/min [2] | % of WT activity [2] | Km ([3]; pH 6.5) | Km ([3]; pH 7.6) | Tm higher than WT ADA2 [1] |
| --- | --- | --- | --- | --- | --- | --- | --- | --- | --- | --- | --- | --- | --- | --- | --- | --- | --- | --- | --- | --- |
| B1 | 65.2 °C | improved enzymatic activity | 129.9 mU/mL | 106.8% | 161.6 mU/mL | 70.2 | 207.1% | 3.29 mM | 37.16 µM/min | 72.86 s⁻¹ | 5.06 mM | 29.08 µM/min | 57.02 s⁻¹ | improved kinetics properties compared to WT |  |  |  |  |  |  |
| B2 | 66.8 °C | improved enzymatic activity | 162.9 mU/mL | 134% | 269.8 mU/mL | 117.3 | 345.9% | 3.16 mM | 42.98 µM/min | 84.27 s⁻¹ | 4.88 mM | 28.25 µM/min | 55.39 s⁻¹ | improved kinetics properties compared to WT |  |  |  |  |  |  |
| B3 | 67.1 °C |  | 121.6 mU/mL | 100% | 78 mU/mL | 33.9 | 100% | 3.66 mM | 31.81 µM/min | 62.37 s⁻¹ | 5.25 mM | 26.09 µM/min | 51.16 s⁻¹ |  | 78 mU/ml | 33.9 ΔA/min | 100% | 3.66 mM | 5.25 mM |  |
| B4 | 67.81 °C |  | 142 mU/mL | 116.8% |  |  |  |  |  |  |  |  |  |  |  |  |  |  |  |  |
| B5 | 69.7 °C | improved enzymatic activity |  |  | 313.8 mU/mL | 136.5 | 402.3% | 3.18 mM | 41.93 µM/min | 82.22 s⁻¹ | 4.77 mM | 35.13 µM/min | 68.88 s⁻¹ | improved kinetics properties compared to WT |  |  |  |  |  | 1.4 °C |
| B6 | 60.8 °C |  |  |  |  |  |  | 1.49 mM | 45.79 µM/min | 89.78 s⁻¹ | 3.02 mM | 80.49 µM/min | 157.82 s⁻¹ |  | 164.8 mU/ml | 71.7 ΔA/min | 211% | 1.49 mM | 3.02 mM |  |
